From patent US20260097113A1 (Pfizer, published 2026) come the findings set out here.

Experiment [1] deals with RSV A + RSV B bivalent composition (RSV subtype A; RSV subtype B). The experiment can be described thus: AM14 Fab titration by SEC; Target cycle; 8 M 2-8°C.
For experiment [2] the target is unchanged. The experiment can be described thus: AM14 Fab titration by SEC; Low-Fast cycle; 3 M 40°C. For orientation: SEC sorts molecules by how far they enter the pores of the column.
Experiment [3] shares this target. The experiment can be described thus: AM14 Fab titration by SEC; Low-Fast cycle; 8 M 25°C.
Experiment [4] shares this target. The experiment can be described thus: AM14 Fab titration by SEC; Low-Fast cycle; 8 M 40°C.
For experiment [5] the target is unchanged. Description: AM14 Fab titration by SEC; Low-Fast cycle; 8 M 2-8°C.
Experiment [6] shares this target. Description: AM14 Fab titration by SEC; High-Slow 1 cycle; 3 M 40°C.
The target is the same in experiment [7]. The experiment can be described thus: AM14 Fab titration by SEC; High-Slow 1 cycle; 8 M 40°C.
The target is the same in experiment [8]. Description: AM14 Fab titration by SEC; High-Slow 1 cycle; 8 M 2-8°C.
Experiment [9] has the same target. Description: AM14 Fab titration by SEC; High-Slow 2 cycle; 8 M 2-8°C.
The target is the same in experiment [10]. The experiment can be described thus: AM14 Fab titration by SEC; High-Slow 1 cycle; 1 M 25°C (second value).
Experiment [11] shares this target. The experiment can be described thus: AM14 Fab titration by SEC; High-Slow 1 cycle; 1 M 40°C (second value).
Experiment [12] concerns the target T1, RSV F protein of subtype A comprising a polypeptide of SEQ ID NO: 1 and a polypeptide of SEQ ID NO: 2 (RSV subtype A, UniProt P11209 137-513; P03420 26-109).
T1 construct: Stabilized prefusion F trimer made of three F2-F1 heterodimers; Produced recombinantly in CHO cells; also called RSV A; RSVA
T1 chain 1: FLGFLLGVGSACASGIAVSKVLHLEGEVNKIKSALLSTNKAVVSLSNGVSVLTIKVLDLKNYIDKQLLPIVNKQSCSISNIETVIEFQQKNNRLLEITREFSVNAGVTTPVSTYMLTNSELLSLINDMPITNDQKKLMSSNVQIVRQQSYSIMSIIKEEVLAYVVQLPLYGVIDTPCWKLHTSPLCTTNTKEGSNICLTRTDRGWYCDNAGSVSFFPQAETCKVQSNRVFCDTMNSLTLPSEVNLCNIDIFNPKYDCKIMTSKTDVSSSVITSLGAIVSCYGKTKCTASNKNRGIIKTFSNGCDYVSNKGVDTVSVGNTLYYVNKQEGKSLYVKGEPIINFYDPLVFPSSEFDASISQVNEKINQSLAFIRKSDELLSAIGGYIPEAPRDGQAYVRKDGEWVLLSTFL
T1 chain 2: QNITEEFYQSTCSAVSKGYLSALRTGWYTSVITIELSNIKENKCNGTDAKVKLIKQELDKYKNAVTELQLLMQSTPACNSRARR
Description: AM14 ELISA; F13 (pH 7, 100 mM NaCl, 4.5% sucrose); T0.

In experiment [13] the target is T1, RSV F protein of subtype A comprising a …. Description: AM14 ELISA; F2 (pH 8, 0 mM NaCl, 0% sucrose); 1 wk 25°C.
Experiment [14] has the same target. The experiment can be described thus: AM14 ELISA; F3 (pH 8, 0 mM NaCl, 9% sucrose); 1 wk 25°C. In general terms: An ELISA detects its analyte on a solid surface through an enzyme-linked reagent.
For experiment [15] the target is unchanged. Description: AM14 ELISA; F8 (pH 7, 50 mM NaCl, 0% sucrose); 2 wk 25°C.
Experiment [16] has the same target. Description: AM14 ELISA; F1 (pH 8, 100 mM NaCl, 0% sucrose); 1 wk 25°C.
The target is the same in experiment [17]. Description: AM14 ELISA; F10 (pH 7, 50 mM NaCl, 4.5% sucrose); 1 wk 5°C.
Experiment [18] has the same target. The experiment can be described thus: AM14 ELISA; F13 (pH 7, 100 mM NaCl, 4.5% sucrose); 1 wk 25°C.
For experiment [19] the target is unchanged. Description: AM14 ELISA; F19 (pH 7, 50 mM NaCl, 3% trehalose + 3% mannitol); T0.

For AM14 Fab, the Prefusion Content (%) is 73% in [1]; 70% in [2]; 76% in experiment [3]; 63% in [4]; 73% in [5]; 52% in experiment [6]. Moreover, the Prefusion Content (%) was found to be 53% in experiment [7]; 69% in experiment [8]; 72% in experiment [9]; 65% in experiment [10]; 46% in experiment [11].

B1: AM14 (trimeric prefusion specific antibody of the AM14 ELISA) (antibody, V domains shown)
VH: EVQLVESGGGVVQPGRSLRLSCAASGFSFSHYAMHWVRQAPGKGLEWVAVISYDGENTYYADSVKGRFSISRDNSKNTVSLQMNSLRPEDTALYYCARDRIVDDYYYYGMDVWGQGATVTVSS
VL: DIQMTQSPSSLSASVGDRVTITCQASQDIKKYLNWYHQKPGKVPELLMHDASNLETGVPSRFSGRGSGTDFTLTISSLQPEDIGTYYCQQYDNLPPLTFGGGTKVEIKR
notes: Antibody as used in the AM14 ELISA, detected with an HRP-labeled secondary antibody
Regarding B1, the “AM14 prefusion content (%), relative to standard” value in [12] was found to be 97%; in experiment [13], 58%; in experiment [14], 81%; in [15], 85%; in experiment [16], 112%; in experiment [17] it was 93%. Besides, the “AM14 prefusion content (%), relative to standard” value in experiment [18] came to 90%; in experiment [19] it was 93%.
